# Assay results as given in article PMC9482650, “Quantitative fragmentomics allow affinity mapping of interactomes” (Nature Communications, 2022).
# T1: PARD3B_1, Q8TEW8
# T1 sequence (Q8TEW8 196-299, limits assumed, looked up): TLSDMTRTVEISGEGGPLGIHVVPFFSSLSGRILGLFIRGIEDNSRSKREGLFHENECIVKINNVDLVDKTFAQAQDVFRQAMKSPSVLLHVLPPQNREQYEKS
# T2: SNTG2, Q9NY99
# T2 sequence (Q9NY99 68-166, limits assumed, looked up): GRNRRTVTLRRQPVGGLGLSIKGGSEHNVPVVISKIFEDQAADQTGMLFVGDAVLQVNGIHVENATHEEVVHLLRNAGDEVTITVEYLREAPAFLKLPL
# T3: SNTA1, Q13424
# T3 sequence (Q13424 82-180, limits assumed, looked up): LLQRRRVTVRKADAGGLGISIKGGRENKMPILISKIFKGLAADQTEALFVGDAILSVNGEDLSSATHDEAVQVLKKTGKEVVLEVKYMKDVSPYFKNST
# T4: PCLO, Q9Y6V0
# T4 sequence (Q9Y6V0 4491-4600, limits assumed, looked up): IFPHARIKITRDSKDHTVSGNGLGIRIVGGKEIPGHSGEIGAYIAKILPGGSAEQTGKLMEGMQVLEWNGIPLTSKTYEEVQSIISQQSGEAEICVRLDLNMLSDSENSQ
# T5: SYNJ2BP, P57105
# T5 sequence (P57105 8-110, limits assumed, looked up): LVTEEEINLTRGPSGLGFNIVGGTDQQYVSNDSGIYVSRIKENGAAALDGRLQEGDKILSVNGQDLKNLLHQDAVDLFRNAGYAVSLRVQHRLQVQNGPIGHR
# T6: HTRA3, P83110
# T6 sequence (P83110 354-453, limits assumed, looked up): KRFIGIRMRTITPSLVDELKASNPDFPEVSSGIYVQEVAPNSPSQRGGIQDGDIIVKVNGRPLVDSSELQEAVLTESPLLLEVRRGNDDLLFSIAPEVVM
# T7: SNTG1, Q9NSN8
# T7 sequence (Q9NSN8 52-150, limits assumed, looked up): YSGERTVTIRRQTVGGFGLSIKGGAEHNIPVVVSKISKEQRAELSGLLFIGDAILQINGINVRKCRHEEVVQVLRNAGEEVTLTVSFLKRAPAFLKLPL
# T8: ARHGEF11, O15085
# T8 sequence (O15085 42-136, limits assumed, looked up): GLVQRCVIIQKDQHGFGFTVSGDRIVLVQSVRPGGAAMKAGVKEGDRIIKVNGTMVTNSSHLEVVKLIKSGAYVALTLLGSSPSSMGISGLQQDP
# T9: SIPA1L2, Q9P2F8
# T9 sequence (Q9P2F8 945-1036, limits assumed, looked up): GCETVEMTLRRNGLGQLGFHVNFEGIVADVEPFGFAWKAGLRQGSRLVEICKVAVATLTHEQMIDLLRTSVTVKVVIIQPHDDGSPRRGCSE
# T10: MPP7, Q5T2T1
# T10 sequence (Q5T2T1 134-230, limits assumed, looked up): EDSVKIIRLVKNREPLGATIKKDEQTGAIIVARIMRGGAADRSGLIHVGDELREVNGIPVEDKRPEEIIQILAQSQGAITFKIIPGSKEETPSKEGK
# T11: LNX2_3, Q8N448
# T11 sequence (Q8N448 463-564, limits assumed, looked up): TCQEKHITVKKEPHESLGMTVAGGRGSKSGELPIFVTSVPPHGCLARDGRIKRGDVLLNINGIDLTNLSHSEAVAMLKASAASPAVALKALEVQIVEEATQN
# T12: HTRA4, P83105
# T12 sequence (P83105 378-476, limits assumed, looked up): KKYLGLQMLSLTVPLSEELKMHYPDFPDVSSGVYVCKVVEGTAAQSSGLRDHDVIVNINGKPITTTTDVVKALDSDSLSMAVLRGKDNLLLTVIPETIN
# What was measured:
# Assay in all cases: holdup assay
# Design in all cases: key: below the threshold = too weak to quantify, mostly under pKd 3.1 to 4
# Conditions in all cases: plain residues with an end cap or a label only (N-terminal biotin on a linker: ado-ado)
# IL16_1, Q14005 = molecular target: IL16_1, Q14005
# IL16_1, Q14005, sequence (Q14005 210-306): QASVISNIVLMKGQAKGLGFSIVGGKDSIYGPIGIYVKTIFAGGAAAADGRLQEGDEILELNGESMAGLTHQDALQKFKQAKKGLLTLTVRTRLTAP
# NHERF2_2, Q15599 = molecular target: NHERF2_2, Q15599
# NHERF2_2, Q15599, sequence (Q15599 142-238): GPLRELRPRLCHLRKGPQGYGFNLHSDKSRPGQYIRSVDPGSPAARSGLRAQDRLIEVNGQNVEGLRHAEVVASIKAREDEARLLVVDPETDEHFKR
# NOS1, P29475 = molecular target: NOS1, P29475
# NOS1, P29475, sequence (P29475 9-101): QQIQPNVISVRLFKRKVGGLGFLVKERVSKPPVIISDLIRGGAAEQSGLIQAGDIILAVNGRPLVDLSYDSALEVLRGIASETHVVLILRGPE
# NHERF4_1, Q86UT5-2 = molecular target: NHERF4_1, Q86UT5-2
# NHERF4_1, Q86UT5-2, sequence (Q86UT5 other isoform, or with tags, fused parts or gaps): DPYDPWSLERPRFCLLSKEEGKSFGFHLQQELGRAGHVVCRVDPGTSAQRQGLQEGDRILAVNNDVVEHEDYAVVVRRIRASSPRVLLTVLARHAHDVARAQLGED
# ARHGEF12, Q9NZN5-2 = molecular target: ARHGEF12, Q9NZN5-2
# ARHGEF12, Q9NZN5-2, sequence (Q9NZN5 other isoform, or with tags, fused parts or gaps): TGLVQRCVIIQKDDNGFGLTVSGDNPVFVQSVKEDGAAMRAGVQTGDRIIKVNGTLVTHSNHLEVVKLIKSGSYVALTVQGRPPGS
# MAST1, Q9Y2H9 = molecular target: MAST1, Q9Y2H9
# MAST1, Q9Y2H9, sequence (Q9Y2H9 962-1065): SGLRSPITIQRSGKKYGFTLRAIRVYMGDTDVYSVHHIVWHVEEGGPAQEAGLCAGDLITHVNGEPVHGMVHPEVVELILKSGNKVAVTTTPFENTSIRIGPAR
# Inadl_9, Q8NI35 = molecular target: Inadl_9, Q8NI35
# Inadl_9, Q8NI35, sequence (Q8NI35 1530-1615): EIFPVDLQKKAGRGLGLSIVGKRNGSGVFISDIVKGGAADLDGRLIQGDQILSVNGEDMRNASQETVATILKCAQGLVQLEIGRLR
# PARD3B_1, Q8TEW8 = molecular target: T1, PARD3B_1, Q8TEW8
# MAGI2_5, Q86UL8 = molecular target: MAGI2_5, Q86UL8
# MAGI2_5, Q86UL8, sequence (Q86UL8 915-1017): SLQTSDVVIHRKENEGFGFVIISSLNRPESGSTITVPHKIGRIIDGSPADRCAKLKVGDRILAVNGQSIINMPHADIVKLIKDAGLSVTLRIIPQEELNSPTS
# SNTG2, Q9NY99 = molecular target: T2, SNTG2, Q9NY99
# SNTA1, Q13424 = molecular target: T3, SNTA1, Q13424
# PCLO, Q9Y6V0 = molecular target: T4, PCLO, Q9Y6V0
# SYNJ2BP, P57105 = molecular target: T5, SYNJ2BP, P57105
# HTRA3, P83110 = molecular target: T6, HTRA3, P83110
# SCRIB_2, Q14160 = molecular target: SCRIB_2, Q14160
# SCRIB_2, Q14160, sequence (Q14160 857-960): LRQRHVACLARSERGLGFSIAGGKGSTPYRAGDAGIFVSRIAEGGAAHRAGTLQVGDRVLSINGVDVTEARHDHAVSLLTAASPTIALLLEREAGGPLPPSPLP
# SNTG1, Q9NSN8 = molecular target: T7, SNTG1, Q9NSN8
# ARHGEF11, O15085 = molecular target: T8, ARHGEF11, O15085
# SIPA1L2, Q9P2F8 = molecular target: T9, SIPA1L2, Q9P2F8
# DLG2_2, Q15700 = molecular target: DLG2_2, Q15700
# DLG2_2, Q15700, sequence (Q15700 189-283): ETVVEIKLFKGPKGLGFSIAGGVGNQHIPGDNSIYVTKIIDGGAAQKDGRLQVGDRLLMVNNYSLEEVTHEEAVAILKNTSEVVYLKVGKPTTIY
# Inadl_4, Q8NI35 = molecular target: Inadl_4, Q8NI35
# Inadl_4, Q8NI35, sequence (Q8NI35 547-651): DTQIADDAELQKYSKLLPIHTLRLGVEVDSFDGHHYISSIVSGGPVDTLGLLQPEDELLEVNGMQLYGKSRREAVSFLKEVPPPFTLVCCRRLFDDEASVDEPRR
# TJP1_2, Q07157 = molecular target: TJP1_2, Q07157
# TJP1_2, Q07157, sequence (Q07157 181-274): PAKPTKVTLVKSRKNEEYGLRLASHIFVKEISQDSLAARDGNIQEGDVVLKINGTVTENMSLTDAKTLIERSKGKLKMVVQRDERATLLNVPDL
# MPP7, Q5T2T1 = molecular target: T10, MPP7, Q5T2T1
# Inadl_3, Q8NI35 = molecular target: Inadl_3, Q8NI35
# Inadl_3, Q8NI35, sequence (Q8NI35 359-469): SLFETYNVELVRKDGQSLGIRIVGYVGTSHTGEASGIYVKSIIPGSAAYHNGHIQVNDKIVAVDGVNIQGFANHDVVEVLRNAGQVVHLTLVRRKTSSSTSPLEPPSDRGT
# LNX2_3, Q8N448 = molecular target: T11, LNX2_3, Q8N448
# HTRA4, P83105 = molecular target: T12, HTRA4, P83105
# PARD3_3, Q8TEW0 = molecular target: PARD3_3, Q8TEW0
# PARD3_3, Q8TEW0, sequence (Q8TEW0 582-685): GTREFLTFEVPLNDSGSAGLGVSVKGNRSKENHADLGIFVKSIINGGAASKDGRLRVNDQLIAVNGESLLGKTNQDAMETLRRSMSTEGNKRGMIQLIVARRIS
"pKd (IL16_1, Q14005)","pKd (NHERF2_2, Q15599)","pKd (NOS1, P29475)","pKd (NHERF4_1, Q86UT5-2)","pKd (ARHGEF12, Q9NZN5-2)","pKd (MAST1, Q9Y2H9)","pKd (Inadl_9, Q8NI35)","pKd (PARD3B_1, Q8TEW8)","pKd (MAGI2_5, Q86UL8)","pKd (SNTG2, Q9NY99)","pKd (SNTA1, Q13424)","pKd (PCLO, Q9Y6V0)","pKd (SYNJ2BP, P57105)","pKd (HTRA3, P83110)","pKd (SCRIB_2, Q14160)","pKd (SNTG1, Q9NSN8)","pKd (ARHGEF11, O15085)","pKd (SIPA1L2, Q9P2F8)","pKd (DLG2_2, Q15700)","pKd (Inadl_4, Q8NI35)",other results,Binder
below the threshold,below the threshold,below the threshold,below the threshold,4.56,4.3,below the threshold,below the threshold,below the threshold,below the threshold,below the threshold,below the threshold,3.72,below the threshold,below the threshold,below the threshold,4.29,below the threshold,4.29,below the threshold,"pKd (TJP1_2, Q07157): below the threshold; pKd (MPP7, Q5T2T1): below the threshold; pKd (Inadl_3, Q8NI35): below the threshold; pKd (LNX2_3, Q8N448): below the threshold; pKd (HTRA4, P83105): below the threshold; pKd (PARD3_3, Q8TEW0): below the threshold","VNKSKLLTDV [KCNA1, Q09470]"
below the threshold,3.88,3.85,below the threshold,4.4,3.97,below the threshold,below the threshold,4.13,4.81,4.77,below the threshold,4.6,below the threshold,4.27,4.94,below the threshold,below the threshold,4.47,below the threshold,"pKd (TJP1_2, Q07157): below the threshold; pKd (MPP7, Q5T2T1): below the threshold; pKd (Inadl_3, Q8NI35): below the threshold; pKd (LNX2_3, Q8N448): below the threshold; pKd (HTRA4, P83105): below the threshold; pKd (PARD3_3, Q8TEW0): 3.78","SKENVQETQI [LRRC4B, Q9NT99]"
below the threshold,4.84,below the threshold,below the threshold,3.75,4.46,below the threshold,below the threshold,4.04,below the threshold,below the threshold,below the threshold,4.39,below the threshold,3.83,3.54,3.7,below the threshold,below the threshold,below the threshold,"pKd (TJP1_2, Q07157): below the threshold; pKd (MPP7, Q5T2T1): below the threshold; pKd (Inadl_3, Q8NI35): below the threshold; pKd (LNX2_3, Q8N448): below the threshold; pKd (HTRA4, P83105): 4.14; pKd (PARD3_3, Q8TEW0): below the threshold","EVNETDDTKM [KCNJ1, P48048]"
below the threshold,4.76,below the threshold,3.87,4.43,4.73,below the threshold,3.89,below the threshold,4.95,4.9,below the threshold,3.85,below the threshold,below the threshold,4,below the threshold,below the threshold,3.5,below the threshold,"pKd (TJP1_2, Q07157): below the threshold; pKd (MPP7, Q5T2T1): below the threshold; pKd (Inadl_3, Q8NI35): below the threshold; pKd (LNX2_3, Q8N448): below the threshold; pKd (HTRA4, P83105): below the threshold; pKd (PARD3_3, Q8TEW0): below the threshold","NLSIEKETKL [ASNSD1, Q9NWL6]"
